One assay deals with T1, murine PTK7 (murine, UniProt Q8BKG3 23-1062).
T1 construct: whole, on cells; also called mouse antigen; PTK7 on murine 3T3L1 and M158 cells
T1 sequence (looked up): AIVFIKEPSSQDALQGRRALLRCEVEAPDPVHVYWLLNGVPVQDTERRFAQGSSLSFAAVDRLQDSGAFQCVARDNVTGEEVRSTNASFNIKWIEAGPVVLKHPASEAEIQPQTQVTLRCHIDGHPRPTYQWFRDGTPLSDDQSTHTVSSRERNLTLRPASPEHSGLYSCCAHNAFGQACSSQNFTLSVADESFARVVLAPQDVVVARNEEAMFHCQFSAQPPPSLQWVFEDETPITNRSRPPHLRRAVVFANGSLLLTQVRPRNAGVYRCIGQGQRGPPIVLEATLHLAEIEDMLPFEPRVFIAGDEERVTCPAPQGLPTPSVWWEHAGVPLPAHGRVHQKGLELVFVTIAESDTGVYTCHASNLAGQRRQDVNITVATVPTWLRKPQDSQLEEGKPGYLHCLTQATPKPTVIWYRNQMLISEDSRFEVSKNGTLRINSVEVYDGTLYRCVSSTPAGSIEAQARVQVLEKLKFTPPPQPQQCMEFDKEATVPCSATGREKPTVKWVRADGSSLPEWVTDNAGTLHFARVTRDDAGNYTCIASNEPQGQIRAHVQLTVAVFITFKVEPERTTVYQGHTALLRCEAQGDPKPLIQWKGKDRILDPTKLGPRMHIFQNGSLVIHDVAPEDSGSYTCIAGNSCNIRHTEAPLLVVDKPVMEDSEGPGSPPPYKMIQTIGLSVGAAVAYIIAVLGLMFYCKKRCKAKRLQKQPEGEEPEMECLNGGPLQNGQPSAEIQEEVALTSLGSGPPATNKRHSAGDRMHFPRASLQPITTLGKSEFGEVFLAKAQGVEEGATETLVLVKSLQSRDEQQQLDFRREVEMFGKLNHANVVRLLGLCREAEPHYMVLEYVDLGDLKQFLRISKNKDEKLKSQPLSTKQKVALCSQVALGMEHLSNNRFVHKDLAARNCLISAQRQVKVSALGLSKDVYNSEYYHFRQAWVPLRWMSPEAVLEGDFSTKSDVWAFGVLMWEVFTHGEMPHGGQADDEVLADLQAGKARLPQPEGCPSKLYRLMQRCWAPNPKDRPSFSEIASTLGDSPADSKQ
Kind of assay: flow cytometry dose titration (200 nM-0.0032 nM) on murine 3T3L1 and M158 cells; secondary APC-conjugated human IgG-Fc antibody. As to the method: (§1) To evaluate the species cross reactivity of the custom CTX181 antibody, its binding affinity was assessed in murine 3T3L1 fibroblast and murine M158 breast cancer cell lines and compared to its binding affinity in human Saos2 (osteosarcoma), A498 (renal carcinoma) and HCC70 (breast cancer) cell lines. For each cell line, a dose titration binding assay (200 nM-0.0032 nM final CTX181 antibody) was run on 2×10⁶ cells at each concentration. Cells were stained 30 min on ice with CTX181 antibody, followed by washing and 15 min stain at RT with secondary APC fluorophore conjugated human IgG-Fc antibody. Cells were assessed for staining on a Novocyte flow cytometer (Acea Biosciences).
(A flow cytometer gives signals particle by particle.)

In assay [1] the target is T2, human protein tyrosine kinase 7 (PTK7) (human, UniProt Q13308 31-1070).
T2 construct: whole, on cells; also called humPTK7; colon carcinoma kinase 4 (CCK4)
T2 sequence (looked up): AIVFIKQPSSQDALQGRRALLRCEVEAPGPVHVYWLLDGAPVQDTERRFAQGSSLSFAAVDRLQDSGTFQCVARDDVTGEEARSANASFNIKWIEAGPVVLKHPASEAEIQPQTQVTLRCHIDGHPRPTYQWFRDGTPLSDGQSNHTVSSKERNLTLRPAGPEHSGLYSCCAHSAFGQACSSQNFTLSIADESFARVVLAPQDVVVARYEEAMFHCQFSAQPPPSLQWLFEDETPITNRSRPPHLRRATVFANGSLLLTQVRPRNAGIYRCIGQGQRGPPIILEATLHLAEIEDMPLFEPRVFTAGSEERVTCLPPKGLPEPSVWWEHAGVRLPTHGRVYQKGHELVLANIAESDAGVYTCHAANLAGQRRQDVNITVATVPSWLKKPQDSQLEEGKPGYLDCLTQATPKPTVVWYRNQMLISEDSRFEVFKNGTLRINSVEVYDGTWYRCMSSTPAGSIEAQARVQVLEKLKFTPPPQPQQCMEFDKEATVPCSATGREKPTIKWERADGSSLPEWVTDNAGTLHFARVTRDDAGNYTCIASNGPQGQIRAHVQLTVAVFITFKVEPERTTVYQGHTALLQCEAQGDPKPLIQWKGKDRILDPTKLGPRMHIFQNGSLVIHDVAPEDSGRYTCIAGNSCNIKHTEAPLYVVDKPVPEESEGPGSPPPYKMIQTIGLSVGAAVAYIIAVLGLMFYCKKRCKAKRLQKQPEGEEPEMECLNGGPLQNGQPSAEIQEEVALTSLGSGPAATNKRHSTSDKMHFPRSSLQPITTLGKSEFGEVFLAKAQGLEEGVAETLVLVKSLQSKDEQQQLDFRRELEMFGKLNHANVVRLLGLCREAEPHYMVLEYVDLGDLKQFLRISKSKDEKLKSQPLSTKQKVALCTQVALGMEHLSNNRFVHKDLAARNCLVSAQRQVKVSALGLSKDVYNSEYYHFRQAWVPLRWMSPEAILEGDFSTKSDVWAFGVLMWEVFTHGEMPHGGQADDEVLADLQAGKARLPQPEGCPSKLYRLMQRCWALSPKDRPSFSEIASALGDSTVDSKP
The assay can be described thus: flow cytometry dose titration (200 nM-0.0032 nM) on human Saos2, A498 and HCC70 cells; secondary APC-conjugated human IgG-Fc antibody. Here is the method:
as §1

B1: CTX181 mAb (custom recombinant monoclonal anti-PTK7 antibody, Creative Biolabs) (antibody, human IgG1, kappa, V domains shown)
VH: QVQLVESGGGVVQPGRSLRLSCAASGFTFSSYGMHWVRQAPGKGLEWVAVIWDDGSNKYYVDSVKGRFTISRDNSKNTLYLQMNSLRAEDTAVYYCARDDYYGSGSFNSYYGTDVWGQGTTVTVSS
VL: EIVLTQSPATLSLSPGERATLSCRASQSVSIYLAWYQQKPGQAPRLLIYDASNRATGIPARFSGSGSGTDFTLTISSLEPEDFAVYYCQQRSNWPPFTFGPGTKVDIKR
notes: Used biotinylated for immunohistochemistry; In flow cytometry it was detected with a secondary APC-conjugated human IgG-Fc antibody; also called CTX181 antibody; CTX181 Ab
Take B1: the binding result (with murine PTK7; in assay [1]) was “binds” throughout.

The values are drawn from US20200140815A1 (CRISPR THERAPEUTICS, published 2020).
